Results published in US20150111306, “HEMOGLOBIN A1c-SPECIFIC APTAMER, HEMOGLOBIN-SPECIFIC APTAMER, AND APPLICATIONS THEREOF” (National Tsing Hua University, published 2015).

Biological target: Hemoglobin (Hb) (UniProt P69905;P68871 P69905:2-142,P68871:2-147)
Assay: pulldown; biotin-aptamer streptavidin bead sandwich chemiluminescence in blood, R2=0.9821
Details: tags: conjugated to magnetic beads; also captured from blood; chain copies: alpha2beta2 tetramer (inferred); label: biotin (blood detection assay); stem-loop (MFOLD, -9.67 kcal/mol)
Source text: The detection of this embodiment is also a two-antibody assay; therefore, please refer to Example 2 for the detection process. In this embodiment, the nucleic acid sequence of SEQ ID NO: 7 with lower free energy was used as the aptamer. The aptamer was labeled by biotin and was used to replace the anti-Hb antibody in the two-antibody assay. The surface of the magnetic bead used was also conjugated with streptavidin. Upon mixing with blood, the hemoglobin-specific aptamer would bind to hemoglobin in blood. After a magnetic field was applied and the unbound substances were washed away, an acridinium ester-labeled anti-Hb antibody was added. The acridinium ester-labeled anti-Hb antibody produces chemiluminescense, thus, can be detected using luminometer.

Sequence of Hemoglobin (Hb) (P69905 2-142, chain 1 of 2): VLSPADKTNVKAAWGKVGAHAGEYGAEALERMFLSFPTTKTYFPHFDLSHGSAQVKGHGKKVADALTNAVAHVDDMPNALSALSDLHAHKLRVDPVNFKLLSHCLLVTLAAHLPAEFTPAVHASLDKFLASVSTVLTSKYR
Sequence of Hemoglobin (Hb) (P68871 2-147, chain 2 of 2): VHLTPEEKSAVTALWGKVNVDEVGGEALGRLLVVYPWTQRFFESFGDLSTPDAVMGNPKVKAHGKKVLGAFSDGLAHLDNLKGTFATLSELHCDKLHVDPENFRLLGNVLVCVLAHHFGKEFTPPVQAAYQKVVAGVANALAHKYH

B1: Hb-specific aptamer SEQ ID NO: 7 (ssDNA)
DNA: GGCAGGAAGACAAACACCAGGTGAGGGAGACGACGCGAGTGTTAGATGGTAGCTGTTGGTCTGTGGTGCTGT
Question: Does B1 bind?
Answer: binds
